Data on 1 molecule can be found in paper PMC4067145 (Biochemistry, 2014).

What is called Kd is the equilibrium constant for the complex coming apart. The low end stands for higher affinity, the high end for lower affinity.

The target in assay [1] is T1, full-length human U1A protein (human, UniProt P09012 1-282). The assay is described as follows: ITC.
In assay [2] the target is T1, full-length human U1A protein. The experiment in a line: ITC. The source holds these as a separate data set.
For assay [3], the target named is T2, full-length human U2B″ protein (human, UniProt P08579 1-225). The experiment in a line: ITC. For orientation: In ITC the heat of successive injections is recorded.
Assay [4] concerns the target T2, full-length human U2B″ protein. The experiment in a line: ITC. The source holds these as a separate data set.
For assay [5] the target is unchanged. The experiment in a line: other fluorescence titration.
The target of assay [6] is T1, full-length human U1A protein. The assay is described as follows: other fluorescence titration.
Assay [7] has as its target T2, full-length human U2B″ protein. The assay is described as follows: other fluorescence titration. The source holds these as a separate data set.

T2 sequence (P08579 whole entry): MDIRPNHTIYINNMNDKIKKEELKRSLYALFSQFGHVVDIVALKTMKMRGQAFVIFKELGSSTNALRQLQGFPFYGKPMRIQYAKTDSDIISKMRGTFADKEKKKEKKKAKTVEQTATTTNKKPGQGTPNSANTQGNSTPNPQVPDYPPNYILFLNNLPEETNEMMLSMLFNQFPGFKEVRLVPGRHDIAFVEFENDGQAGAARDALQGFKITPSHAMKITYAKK

B1: human U2A′ protein, truncated form that included the first 180 amino acids (LRR domain) (domain or fragment)
chain: MVKLTAELIEQAAQYTNAVRDRELDLRGYKIPVIENLGATLDQFDAIDFSDNEIRKLDGFPLLRRLKTLLVNNNRICRIGEGLDQALPCLTELILTNNSLVELGDLDPLASLKSLTYLSILRNPVTNKKHYRLYVIYKVPQVRVLDFQKVKLKERQEAEKMFKGKRGAQLAKDIARRSKT
For B1, the Kd was found to be 1000 nM in assay [1]; 830 nM in assay [2]; 5.9 nM in assay [3]; 6 nM in assay [4]; 5.1 nM in assay [5]; 1400 nM in assay [6]. This molecule gave a Kd in assay [7] of 4.4 nM.
